Reference: publication PMC11201974, “Structural Insights into the Rrp4 Subunit from the Crystal Structure of the Thermoplasma acidophilum Exosome” (Biomolecules, 2024)

T1: Thermoplasma acidophilum exosome subunit Rrp41 (TaciRrp41) (Thermoplasma acidophilum, UniProt Q9HIP2 1-248)
T1 construct: Exosome complex component Rrp41 of Thermoplasma acidophilum; Single subunit (pET22b) used as ligand in MST; in the crystals the chain came from the pETDuet-1 co-expression with TaciRrp42; source: E. coli BL21 (DE3), from pET22b alone or from pETDuet-1 co-expressed with TaciRrp42; purified (Ni-NTA, Superdex 200)
T1 sequence: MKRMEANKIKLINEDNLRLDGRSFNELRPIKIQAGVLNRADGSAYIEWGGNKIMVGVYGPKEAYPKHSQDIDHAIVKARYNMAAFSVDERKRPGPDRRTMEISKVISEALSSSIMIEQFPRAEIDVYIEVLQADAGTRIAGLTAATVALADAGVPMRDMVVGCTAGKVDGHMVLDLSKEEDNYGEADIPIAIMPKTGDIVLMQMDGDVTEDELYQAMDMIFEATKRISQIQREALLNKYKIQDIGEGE

T2: TaciRrp41:42 complex (Thermoplasma acidophilum exosome core, Rrp41 with truncated Rrp42) (Thermoplasma acidophilum, UniProt Q9HIP2 1-248; Q9HIP1 20-240)
T2 construct: Exosome complex component Rrp41 of Thermoplasma acidophilum; as the chain of m1; Exosome complex component Rrp42 of Thermoplasma acidophilum, truncated core domain of residues 20-240; as the chain of m2; The complex was purified on Ni-NTA and labelled with the His-tag labelling kit (RED-tris-NTA) for MST; the oligomeric state in the MST sample was not measured; also called TaciRrp41/cd-TaciRrp42; …
T2 sequence 1: T1 sequence
T2 sequence 2: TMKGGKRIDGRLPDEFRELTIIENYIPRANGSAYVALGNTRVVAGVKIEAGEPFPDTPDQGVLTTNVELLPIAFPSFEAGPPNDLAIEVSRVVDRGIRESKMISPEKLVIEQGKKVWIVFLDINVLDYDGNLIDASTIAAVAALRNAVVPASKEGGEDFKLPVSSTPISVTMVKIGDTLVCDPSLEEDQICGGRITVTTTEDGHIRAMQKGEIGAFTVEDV

B1: Thermoplasma acidophilum exosome subunit Rrp42, truncated core domain, residues 20-240 (TaciRrp42) (domain or fragment, UniProt Q9HIP1 20-240, looked up)
chain: T2 sequence 2
modifications: RED-tris-NTA fluorescent dye on the His tag (in MST)
notes: Exosome complex component Rrp42 of Thermoplasma acidophilum, truncated Rrp42 corresponding to the core domain composed of residues 20-240; Single subunit (pET28a) was the labelled target in MST; in the crystals the chain came from the pETDuet-1 co-expression; also called cd-TaciRrp42; source: E. coli BL21 (DE3), from pET28a alone or from pETDuet-1 co-expressed with TaciRrp41; purified (Ni-NTA, …)
B2: Thermoplasma acidophilum exosome subunit Rrp4 (TaciRrp4) (natural protein, UniProt Q9HIP3 1-236, looked up)
chain: MYQLGDVKKIVLPGDPIEVQGKMRNGVYRGQDNRYYSEYFGTLQVNDQFVDVVPFSGQYIPRKGDKVIGKVIEVGPSTWTVDINSPYFAMLHMNDTPWRMSSGDLKRYLNAGDYIYAKIMSVNEIKESWLTLKEPGLKKLEGGHMVLIHASRVPRVIGKGGGMVNMVKELTATRIIIGQNGLIWIDGPIEGVTMAIAAIEMIEREAHTEGLTARVESFLKELKGEKDGSQQNKADQ
notes: Exosome complex component Rrp4 of Thermoplasma acidophilum (N-terminal domain, S1 domain, KH domain); also called TaciRrp4-capping protein; source: E. coli Rosetta, from pET22b; purified (Ni-NTA, Superdex 200)

What was measured:
Test in all cases: MST; target (TaciRrp42 or TaciRrp41:42) labelled by RED-tris-NTA His-tag kit, 50 nM; ligand in sixteen serial dilutions (TaciRrp41 550 μM to 16.6 nM; TaciRrp4 200 μM to 6.1 nM); 30 min incubation; LED power and MST power 40%; triplicate
Settings in all cases: both partners purified
[1] = biological target: T1, Thermoplasma acidophilum exosome …
[2] = biological target: B2
[3] = biological target: T2, TaciRrp41:42 complex (Thermoplasma …)

Kd [1] [µM] | Kd [2] [µM] | Kd [3] [µM] | Binder
169 | 4.82 | – | B1
– | – | 200 | B2
